# The supplement of paper PMC7877785
# ± gives the uncertainty stated by the source.
# Assay: self-splicing fitness, log relative to wild type (ln ratio); higher = more splicing; Tetrahymena group I intron in knt gene, E. coli kanamycin selection, DiMSum; sequences stand for … in CUCUCU…GGAGGGAAAAGUUAUCAGGCAUGCACCUGGUAGCUAGUCUUUAAACCAAUAGAUUGCAUCGGUUUAAAAGGCAAGACCGUCAAAUUGCGGGAAAGGGGUCAACAGCCGUUCAGUACCAAGUCUCAGGGGAAACUUUGAGAUGGCCUUGCAAAGGGUAUGGUAAUAAGCUGACGGACAUGGUCCUAACCACGCAGCCAAGUCCUAAGUCAACAGAUCUUCUGUUGAUAUGGAUGCAGUUCACAGACUAAAUGUCGGUCGGGGAAGAUGUAUUCUUCUCAUAAGAUAUAGUCGGACCUCUCCUUAAUGGGAGCUAGCGGAUGAAGUGAUGCAACACUGGAGCCGCUGGGAACUAAUUUGUAUGCGAAAGUAUAUUGAUUAGUUUUGGAGUACUCGUGGUCG
# Method in brief: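 Fitness was computed with DiMSum as the error-weighted combination of replicate fold changes, kanamycin versus none, each normalised to wild type. The library randomised all eight intron nucleotides of the P1ex region, with the intron placed in the knt kanamycin-resistance gene on pET-22b(+) in E. coli BL21(DE3). Six replicate transformations were grown overnight at 37°C or 30°C on LB agar with or without 25 μg/mL kanamycin, plus 100 μg/mL carbenicillin, 50 μM IPTG and 0.2% rhamnose. Pooled colonies were amplicon-sequenced on an Illumina HiSeq 2500.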
Sequence,self-splicing fitness (ln) (30 °C),self-splicing fitness (ln) (37 °C)
AUAUAGCAAUAUUACGUCUC,-3.22 ± 0.36,-1.51 ± 0.28
AUAUAGCAAUAUUACGUGUA,-2.27 ± 0.36,-2.01 ± 0.25
AUAUAGCAAUAUUACGUUAC,-3.05 ± 0.29,-2.33 ± 0.24
AUCAAGCAAUAUUACGAAGG,-3.36 ± 0.19,-2.96 ± 0.26
AUCAAGCAAUAUUACGACUC,-0.467 ± 0.1,-0.0986 ± 0.14
AUCAAGCAAUAUUACGAGAG,-3.32 ± 0.16,-1.76 ± 0.11
AUCAAGCAAUAUUACGAGGG,-2.85 ± 0.19,-1.39 ± 0.19
AUCAAGCAAUAUUACGAGGU,-3.52 ± 0.2,-3.4 ± 0.33
AUCAAGCAAUAUUACGAUAA,-1.99 ± 0.11,-0.292 ± 0.092
AUCAAGCAAUAUUACGCAAU,-2.22 ± 0.14,-1.56 ± 0.14
AUCAAGCAAUAUUACGCCAC,-1.42 ± 0.29,-1.79 ± 0.4
AUCAAGCAAUAUUACGCGUA,-1.02 ± 0.086,-0.375 ± 0.08
AUCAAGCAAUAUUACGCGUG,-2.23 ± 0.08,-0.744 ± 0.084
AUCAAGCAAUAUUACGCUAU,-3.18 ± 0.16,-0.907 ± 0.12
AUCAAGCAAUAUUACGCUUG,-4.23 ± 0.39,-2.6 ± 0.22
AUCAAGCAAUAUUACGGCAU,-0.523 ± 0.067,0.787 ± 0.088
AUCAAGCAAUAUUACGGGGA,-1.43 ± 0.12,-1.49 ± 0.13
AUCAAGCAAUAUUACGGUGC,-3.24 ± 0.17,-3.12 ± 0.24
AUCAAGCAAUAUUACGGUUU,-1.29 ± 0.073,-0.35 ± 0.075
AUCAAGCAAUAUUACGUAGG,-2.91 ± 0.1,-1.51 ± 0.11
AUCAAGCAAUAUUACGUCAG,-3.41 ± 0.18,-1.92 ± 0.16
AUCAAGCAAUAUUACGUGGA,-2.28 ± 0.14,-1.71 ± 0.12
AUCAAGCAAUAUUACGUUGA,-2.52 ± 0.1,-1.8 ± 0.12
AUCCAGCAAUAUUACGAAAU,-0.769 ± 0.084,-0.546 ± 0.11
AUCCAGCAAUAUUACGAAGU,-1.21 ± 0.079,-1.2 ± 0.094

Sequence,self-splicing fitness (ln) (30 °C),self-splicing fitness (ln) (37 °C)
AUCCAGCAAUAUUACGAAUU,-1.43 ± 0.084,-1.04 ± 0.11
AUCCAGCAAUAUUACGACGG,-4 ± 0.3,-1.8 ± 0.19
AUCCAGCAAUAUUACGACUC,-0.847 ± 0.071,0.244 ± 0.1
AUCCAGCAAUAUUACGAGCU,-2.2 ± 0.096,-2.03 ± 0.17
AUCCAGCAAUAUUACGAGGG,-2.9 ± 0.1,-1.49 ± 0.11
AUCCAGCAAUAUUACGAGUC,-2.87 ± 0.17,-2.01 ± 0.21
AUCCAGCAAUAUUACGAUUA,-1.19 ± 0.094,-0.911 ± 0.1
AUCCAGCAAUAUUACGCAAA,-2.07 ± 0.16,-0.15 ± 0.11
AUCCAGCAAUAUUACGCAUC,-2.92 ± 0.18,-1.97 ± 0.14
AUCCAGCAAUAUUACGCCUA,-1.29 ± 0.19,0.121 ± 0.13
AUCCAGCAAUAUUACGCCUG,-3.86 ± 0.26,-2.09 ± 0.16
AUCCAGCAAUAUUACGCGGU,,-3.32 ± 0.42
AUCCAGCAAUAUUACGCUAG,-2.76 ± 0.11,-1.11 ± 0.12
AUCCAGCAAUAUUACGCUGG,-3.65 ± 0.19,-1.7 ± 0.16
AUCCAGCAAUAUUACGCUGU,-2.12 ± 0.14,-2.02 ± 0.14
AUCCAGCAAUAUUACGCUUC,-3.58 ± 0.16,-2.15 ± 0.15
AUCCAGCAAUAUUACGCUUU,-0.879 ± 0.076,-0.641 ± 0.086
AUCCAGCAAUAUUACGGCAA,-0.324 ± 0.1,-0.263 ± 0.12
AUCCAGCAAUAUUACGGCAU,-0.192 ± 0.071,0.204 ± 0.082
AUCCAGCAAUAUUACGGCUC,-1.39 ± 0.078,-0.482 ± 0.099
AUCCAGCAAUAUUACGGUGG,-4.66 ± 0.33,-2.49 ± 0.21
AUCCAGCAAUAUUACGUCGU,-0.689 ± 0.062,-0.625 ± 0.077
AUCCAGCAAUAUUACGUCUG,-3.67 ± 0.23,-2.55 ± 0.25
AUCCAGCAAUAUUACGUGGG,-2.58 ± 0.1,-3.5 ± 0.13
AUCCAGCAAUAUUACGUGUC,-3.34 ± 0.16,-2.24 ± 0.14

Sequence,self-splicing fitness (ln) (30 °C),self-splicing fitness (ln) (37 °C)
AUCGAGCAAUAUUACGAAGA,-1.74 ± 0.44,-1.65 ± 0.38
AUCGAGCAAUAUUACGAAGC,-3.18 ± 0.39,
AUCGAGCAAUAUUACGAAGG,-2.56 ± 0.23,-2.28 ± 0.31
AUCGAGCAAUAUUACGAAUG,,-2.06 ± 0.28
AUCGAGCAAUAUUACGACAC,-2.4 ± 0.29,-0.469 ± 0.22
AUCGAGCAAUAUUACGACCA,-2.06 ± 0.22,-0.741 ± 0.28
AUCGAGCAAUAUUACGACGU,-0.331 ± 0.096,0.0461 ± 0.12
AUCGAGCAAUAUUACGACUC,-3.4 ± 0.3,-1.98 ± 0.27
AUCGAGCAAUAUUACGACUG,-2.17 ± 0.13,-1.64 ± 0.15
AUCGAGCAAUAUUACGACUU,-0.779 ± 0.15,-0.826 ± 0.19
AUCGAGCAAUAUUACGAGGG,-1.4 ± 0.17,-2.1 ± 0.46
AUCGAGCAAUAUUACGAGUA,-3.25 ± 0.41,-1.58 ± 0.28
AUCGAGCAAUAUUACGAUGG,,-2.17 ± 0.38
AUCGAGCAAUAUUACGAUGU,-2.9 ± 0.12,-1.76 ± 0.11
AUCGAGCAAUAUUACGCCCA,-1.77 ± 0.24,-1.37 ± 0.3
AUCGAGCAAUAUUACGCCGA,-3.08 ± 0.34,
AUCGAGCAAUAUUACGCUAA,-3.48 ± 0.21,-2.88 ± 0.18
AUCGAGCAAUAUUACGCUCG,-2.72 ± 0.35,
AUCGAGCAAUAUUACGCUUA,-2.01 ± 0.18,-0.429 ± 0.13
AUCGAGCAAUAUUACGGAAG,,-0.716 ± 0.16
AUCGAGCAAUAUUACGGACC,-0.501 ± 0.48,
AUCGAGCAAUAUUACGGUCC,-3.46 ± 0.46,
AUCGAGCAAUAUUACGUAAG,-2.16 ± 0.44,-1.61 ± 0.3
AUCGAGCAAUAUUACGUAGU,-3.47 ± 0.14,-1.96 ± 0.15
AUCGAGCAAUAUUACGUAUG,-3.84 ± 0.19,-4.4 ± 0.46

Sequence,self-splicing fitness (ln) (30 °C),self-splicing fitness (ln) (37 °C)
AUCGAGCAAUAUUACGUAUU,-3.67 ± 0.21,-2.5 ± 0.18
AUCGAGCAAUAUUACGUCCA,,0.309 ± 0.47
AUCGAGCAAUAUUACGUCUG,-3.46 ± 0.34,-1.43 ± 0.19
AUCGAGCAAUAUUACGUGGG,-4.14 ± 0.33,-2.42 ± 0.24
AUCUAGCAAUAUUACGAACA,-1.53 ± 0.14,-0.645 ± 0.12
AUCUAGCAAUAUUACGAGAG,-1.88 ± 0.11,-0.329 ± 0.1
AUCUAGCAAUAUUACGAGGC,,-2.69 ± 0.34
AUCUAGCAAUAUUACGAUAG,-2.36 ± 0.33,-1.16 ± 0.44
AUCUAGCAAUAUUACGAUUG,-3.1 ± 0.28,-2.79 ± 0.34
AUCUAGCAAUAUUACGCAAU,-2.02 ± 0.089,-1.37 ± 0.09
AUCUAGCAAUAUUACGCGAC,-2.29 ± 0.4,-0.43 ± 0.39
AUCUAGCAAUAUUACGCGAU,,-2.53 ± 0.29
AUCUAGCAAUAUUACGCGUA,-0.86 ± 0.11,-0.721 ± 0.13
AUCUAGCAAUAUUACGCUAC,-1.85 ± 0.34,-1.72 ± 0.4
AUCUAGCAAUAUUACGGAAU,-1.87 ± 0.16,-2.1 ± 0.19
AUCUAGCAAUAUUACGGACC,-0.962 ± 0.16,-0.141 ± 0.23
AUCUAGCAAUAUUACGGCCU,-0.214 ± 0.1,-0.589 ± 0.14
AUCUAGCAAUAUUACGGUCC,-1.34 ± 0.21,1.22 ± 0.25
AUCUAGCAAUAUUACGUAGC,-3.71 ± 0.35,-1.84 ± 0.27
AUCUAGCAAUAUUACGUCCU,-1.07 ± 0.078,0.137 ± 0.096
AUCUAGCAAUAUUACGUUGA,-2.53 ± 0.11,-1.7 ± 0.11
AUCUAGCAAUAUUACGUUGU,-3.68 ± 0.17,-2.27 ± 0.13
AUGAAGCAAUAUUACGAACG,-0.583 ± 0.094,0.0323 ± 0.12
AUGAAGCAAUAUUACGACAU,0.292 ± 0.012,0.49 ± 0.032
